# Measured values as given in paper PMC8960791 (Communications Biology, 2022).
# B1: CA125 (antibody, V domains shown)
# VH: EVQLVESGGGLVKPGGSLRLSCAASGFTFSSYSMNWVRQAPGKGLEWVSSISSSSSYIYYADSVKGRFTISRDNAKNSLYLQMNSLRAEDTAVYYCARVVDTAMGDAFDIWGQGTMVTVSS
# VL: not shown
# B2: CA149 (antibody, V domains shown)
# VH: EVQLVESGGGLVKPGGSLRLSCAASGFTFSSYSMNWVRQAPGKGLEWVSSISSSSSYIYYADSVKGRFTISRDNAKNSLYLQMNSLRAEDTAVYYCARCAAGFVPDAFDIWGQGTMVTVSS
# VL: not shown
# B3: CA134 (antibody, V domains shown)
# VH: EVQLVESGGGLVKPGGSLRLSCAASGFTFSSYSMNWVRQAPGKGLEWVSSISSSSSYIYYADSVKGRFTISRDNAKNSLYLQMNSLRAEDTAVYYCARVFGEQLVSFFDYWGQGTLVTVSS
# VL: EIVMTQSPPGERATLSCRASQSVSSNLAWYQQKPGQAPRLLIYGASTRATGIPARFSGSGSGTEFTLTISSLQSEDFAVYYCQQYNNWPPWTFGQGTKVEIK
# B4: CA124 (antibody, V domains shown)
# VH: QVQLVESGGGLVKPGGSLRLSCAASGFTFSDYYMSWIRQAPGKGLEWVSYISSSGSTIYYADSVKGRFTISRDNAKNSLYLQMNSLRAEDTAVYYCASGFSSWGADDYWGQGTLVTVSS
# VL: HPDDPVSSSLSASVGDRVTITCRASQGISNYLAWFQQKPGKAPKSLIYAASSLQSGVPSKFSGSGSGTDFTLTISSLQPEDFATYYCQQYNSYPLTFGQGTKLEIK
# B5: CA141 (antibody, V domains shown)
# VH: EVQLVESGGGLVKPGGSLRLSCAASGFTFSSYSMNWVRQAPGKGLEWVSSISSSSSYIYYADSVKGRFTISRDNAKNSLYLQMNSLRAEDTAVYYCARASENGDDAFDIWGQGTMVTVSS
# VL: EIVLTQSPATLSLSPGERATLSCRASQSVSSYLAWYQQKPGQAPRLLIYDASNRATGIPARFSGSGSGTDFTLTISSLEPEDFAVYYCQQRSNWPPYTFGQGTKLEIK
# B6: CA143 (antibody, V domains shown)
# VH: EVQLVESGGGLVKPGGSLRLSCAASGFTFSSYSMNWVRQAPGKGLEWVSSISSSSSYIYYADSVKGRFTISRDNAKNSLYLQMNSLRAEDTAVYYCARDSLPAGDYFDYWGQGTLVTVSS
# VL: DIQLTQSPSFLSASVGDRVTITCRASQGISSYLAWYQQKPGKAPKLLIYAASTLQSGVPSRFSGSGSGTEFTLTISSLQPEDFATYYCQQLNSYPQTTFGGGTKVEIK
# B7: CA144 (antibody, V domains shown)
# VH: EVQLVESGGGLVKPGGSLRLSCAASGFTFSSYSMNWVRQAPGKGLEWVSSISSSSSYIYYADSVKGRFTISRDNAKNSLYLQMNSLRAEDTAVYYCARDRVEMAFHFDYWGQGTLVTVSS
# VL: not shown
# B8: CA139 (antibody, V domains shown)
# VH: not shown
# VL: DIQMTQSPSSLSASVGDRVTITCRASQGISNYLAWFQQKPGKAPKSLIYAASSLQSGVPSKFSGSGSGTDFTLTISSLQPEDFATYYCQQYNSYPLTFGGGTKVEIK
# B9: CA148 (antibody, V domains shown)
# VH: QVQLVQSGAEVKKPGASVKVSCKASGYTFTSYGISWVRQAPGQGLEWMGWISAYNGNTNYAQKLQGRVTMTTDTSTSTAYMELRSLRSDDTAVYYCARTPGDEYYYYYYMDVWGKGTTVTVSS
# VL: EIVLTQSPATLSLSPGERATLSCRASQSVSSYLAWYQQKPGQAPRLLIYDASNRATGIPARFSGSGSGTDFTLTISSLEPEDFAVYYCQQRSNWPRTFGQGTKLEIK
# B10: CA146 (antibody, V domains shown)
# VH: QVQLVESGGGVVQPGRSLRLSCAASGFTFSSYGMHWVRQAPGKGLEWVAVISYDGSNKYYADSVKGRFTISRDNSKNTLYLQMNSLRAEDTAVYYCAKDRYSIVGATSNGMDVWGQGTTVTVSS
# VL: not shown
# B11: CA156 (antibody, V domains shown)
# VH: EVQLVESGGGLVKPGGSLRLSCAASGFTFSSYSMNWVRQAPGKGLEWVSSISSSSSYIYYADSVKGRFTISRDNAKNSLYLQMNSLRAEDTAVYYCARDFSGDFWSGYDYWGQGTLVTVSS
# VL: not shown
# B12: CA131 (antibody, V domains shown)
# VH: QLQLQESGSGLVKPSQTLSLTCAVSGGSISSGGYSWSWIRQPPGKGLEWIGYIYHSGSTYYNPSLKSRVTISVDRSKNQFSLKLSSVTAADTAVYYCATGGGHKELGGWGQGTLVTVSS
# VL: not shown
# B13: CA123 (antibody, V domains shown)
# VH: EVQLVESGGGLVQPGGSLRLSCAASGFTFSSYWMHWVRQAPGKGLVWVSRINSDGSSTSYADSVKGRFTISRDNAKNTLYLQMNSLRAEDTAVYYCARDQGSTSCYYCYYGMDVWGQGTTVTVSS
# VL: not shown
# B14: CA154 (antibody, V domains shown)
# VH: not shown
# VL: AIRMTQSPSSFSASTGDRVTITCRASQGISSYLAWYQQKPGKAPKLLIYAASTLQSGVPSRFSGSGSGTDFTLTISCLQSEDFATYYCQQYYSYALTFGGGTKVEIK
# B15: CA162 (antibody, V domains shown)
# VH: QVQLVESGGGLVKPGGSLRLSCAASGFTFSDYYMSWIRQAPGKGLEWVSYISSSSSYTNYADSVKGRFTISRDNAKNSLYLQMNSLRAEDTAVYYCARGRTMFKNYYDSSGYYGYFDYWGQGTLVTVSS
# VL: DIQMTQSPSSVSASVGDRVTITCRASQGISSWLAWYQQKPGKAPKLLIYAASSLQSGVPSRFSGSGSGTDFTLTISSLQPEDFATYYCQQANSPLTFGGGTKVEIK
# B16: CA159 (antibody, V domains shown)
# VH: QVQLVQSGAEVKKPGSSVKVSCKASGGTFSSYAISWVRQAPGQGLEWMGGIIPIFGTANYAQKFQGRVTITADESTSTAYMELSSLRSEDTAVYYCARASYYYYYMDVWGKGTTVTVSS
# VL: not shown
# B17: CA155 (antibody, V domains shown)
# VH: QVQLVESGGGLVKPGGSLRLSCAASGFTFSDYYMSWIRQAPGKGLEWVSYISSSSSYTNYADSVKGRFTISRDNAKNSLYLQMNSLRAEDTAVYYCARGGIYYYYYMDVWGKGTTVTVSS
# VL: not shown
# B18: CA150 (antibody, V domains shown)
# VH: QVQLVQSGAEVKKPGSSVKVSCKASGGTFSSYAISWVRQAPGQGLEWMGGIIPIFGTANYAQKFQGRVTITADESTSTAYMELSSLRSEDTAVYYCASFPNCSSTSCYYYYYMDVWGKGTTVTVSS
# VL: QSALTQPASVSGSPGQSITISCTGTSSDVGGYNYVSWYQQHPGKAPKLMIYDVSNRPSGVSNRFSGSKSGNTASLTISGLQAEDEADYYCSSYTSSSTRDVVFGGGTKLTVL
# B19: CA151 (antibody, V domains shown)
# VH: RCSCRSRAPGLVKPSETLSLTCTVSGGSVSSGSYYWSWIRQPPGKGLEWIGYIYYSGSTNYNPSLKSRVTISVDTSKNQFSLKLSSVTAADTAVYYCASFTRMSPYAFDIWGQGTMVTVSS
# VL: not shown
# B20: CA157 (antibody, V domains shown)
# VH: EVQLVESGGGLVQPGGSLRLSCAASGFTFSSYEMNWVRQAPGKGLEWVSYISSSGSTIYYADSVKGRFTISRDNAKNSLYLQMNSLRAEDTAVYYCARGYCSSTSCPFDYWGQGTLVTVSS
# VL: not shown
# B21: CA153 (antibody, V domains shown)
# VH: EVQLVESGGGLVKPGGSLRLSCAASGFTFSSYSMNWVRQAPGKGLEWVSSISSSSSYIYYADSVKGRFTISRDNAKNSLYLQMNSLRAEDTAVYYCARLTYYYYMDVWGKGTTVTVSS
# VL: not shown
# B22: CA158 (antibody, V domains shown)
# VH: EVQLVESGGGLVKPGGSLRLSCAASGFTFSSYSMNWVRQAPGKGLEWVSSISSSSSYIYYADSVKGRFTISRDNAKNSLYLQMNSLRAEDTAVYYCARMYQLAAIDYWGQGTLVTVSS
# VL: not shown
# B23: CA120 (antibody, V domains shown)
# VH: EVQLVESGGGLVQPGGSLRLSCVASGFTFSTYSMNWVRQAPGKGLEWVSYISSSSSTIYYADSVKGRFTISRDNAKNSLYLQMNSLRAEDTAVYYCARDPGWLSWFDPWGQGTLVTVSS
# VL: RSLPAPWSLSPGERATLSCRASQSVSNSYLAWYQQKPGQAPRLLIYGASSRATGIPDRFSGSGSGTDFTLTISRLEPEDFAVYYCQQYGGSPRTFGQGTKVEIK
# B24: CA135 (antibody, V domains shown)
# VH: EVQLVESGGGLVQPGGSLRLSCVASGFTFSTYSMNWVRQAPGKGLEWVSYISSSSSTIYYADSVKGRFTISRDNAKNSLYLQMNSLRAEDTAVYYCARDPGWLSWFDPWGQGTLVTVSS
# VL: not shown
# B25: CA137 (antibody, V domains shown)
# VH: EVQLVESGGGLVQPGGSLRLSCVASGFTFSTYSMNWVRQAPGKGLEWVSYISSSSSTIYYADSVKGRFTISRDNAKNSLYLQMNSLRAEDTAVYYCARDPGWLSWFDPWGQGTLVTVSS
# VL: not shown
# B26: CA133 (antibody, V domains shown)
# VH: EVQLVESGGGLVQPGGSLRLSCVASGFTFSSYSMNWVRQAPGKGLEWVSYISSSSSTIYYADSVKGRFTISRDNAKNSLYLQMNSLRAEDTAVYYCARDPGWLSWFDPWGQGTLVTVSS
# VL: not shown
# B27: CA132 (antibody, V domains shown)
# VH: EVQLVESGGGLVQPGGSLRLSCVASGFTFSTYSMNWVRQAPGKGLEWVSYISSSSSTIYYADSVKGRFTISRDNAKNSLYLQMNSLRAEDTAVYYCARDPGWLSWFDPWGQGTLVTVSS
# VL: EIVLTQSPPGERATLSCRASQSVSNSYLAWYQQKPGQAPRLLIYGASSRATGIPDRFSGSGSGTDFTLTISRLEPEDFAVYYCQQYGGSPRTFGQGTKVEIK
# B28: CA128 (antibody, V domains shown)
# VH: QVQLVESGGGLVKPGGSLRLSCAASGFTFSDYYMSWIRQAPGKGLEWVSYISSSGSTIYYADSVKGRFTISRDNAKNSLYLQMNSLRAEDTAVYYCARDSGSFVGVFDYWGQGTLVTVSS
# VL: not shown
# B29: CA145 (antibody, V domains shown)
# VH: QVQLVESGGGLVKPGGSLRLSCAASGFTFSDYYMSWIRQAPGKGLEWVSYISSSGSTIYYADSVKGRFTISRDNAKNSLYLQMNSLRAEDTAVYYCARDVLELRWWFDPWGQGTLVTVSS
# VL: not shown
# Target: soluble HLA-E-VL9, HLA-E*01:03 heavy chain refolded with β2-microglobulin and synthetic VL9 peptide (Homo sapiens, HLA-E*01:03, strain)
Binder,binding result,Kd
B1,binds,–
B2,binds,–
B3,binds,–
B4,binds,–
B5,binds,–
B6,binds,–
B7,binds,–
B8,binds,–
B9,binds,–
B10,binds,–
B11,binds,–
B12,binds,–
B13,–,3.8 µM
B14,binds,–
B15,binds,–
B16,binds,–
B17,binds,–
B18,binds,–
B19,binds,–
B20,binds,–
B21,binds,–
B22,binds,–
B23,binds,–
B24,binds,–
B25,binds,–
B26,binds,–
B27,binds,–
B28,binds,–
B29,binds,–
